Entries after “also recorded” stand apart in the source; their conditions may differ.
How the values were obtained:
[1] = DSC of additional batches, ratio of apo to holo-Lactoferrin; type: physicochemical; settings: 5 mg/mL, 30° C. to 100° C. range
Description: Additional batches of Lactea-Lf as described in the above examples and the relative ratio of apo to holo-Lactoferrin was assessed by Differential Scanning Calorimetry (DSC). Lactoferrin samples were loaded at 5 mg/mL into a NanoDSC (TI Instruments) and measured in the 30° C. to 100° C. range. […] It is likely that these peaks are smaller as the sample is highly impure or contains already denatured product.

[2] = tested on: lactoperoxidase (LPO); experiment: Enzymatic colorimetric assay for lactoperoxidase (LPO) activity; type: biochemical; settings: colorimetric peroxidase substrate
Text: An enzymatic assay for lactoperoxidase (LPO) activity was developed utilizing a molecule which in the presence of peroxidase activity turns a blue color.

[3] = tested on: E. coli 0157; experiment: Bacterial growth inhibition, OD600 after 16 h; type: cell-based; settings: 1 mg/mL Lf, 16 h at 37° C.
Description: As an analytical standard for the assessment of Lactoferrin (Lf) activity, 1 mg/mL Lf was added to 10∝CFU/mL E. coli 0157 in LB and incubated for 16 h at 37° C. Lactea Lactoferrin (Lactea-Lf) was produced as described in the above examples. Assessed were three independent lots of Lactea-Lf, impure samples which were generated by co-eluting Lactoperoxidase and Lactoferrin (co-elution), samples with degradation products generated by eluting Lactoferrin from old milk which was left for three days (Degradation Products), and a Sigma Aldrich Lactoferrin L9507 (Research Standard). As shown in FIG. 16 and quantified in Table 5, in the Lactea-Lf lots assessed, less than 5% the total growth of bacteria was observed as assessed by OD600 relative to the growth of untreated bacteria under these conditions. In this case, co-elution samples were samples which have a detectable peak of LPO as observable in MALDI-TOF M/S or HPLC. Degradation Products had identifiable degradation peaks as observed in HPLC or DSC.

[4] = tested on: E. coli 0157; experiment: Biofilm formation, crystal violet assay; type: cell-based; settings: for Biofilm Inhibition, Replicate 1 / Biofilm Inhibition, Replicate 2 / Biofilm Inhibition, Replicate 3: 24 hours
Description: Lactoferrin was assessed for biofilm growth inhibition. To study the relative concentration dependent efficacy of Lactea-Lf and the Sigma Aldrich research standard Lactoferrin in inhibiting biofilm formation, Lf was added at concentrations ranging from 2 mg/mL to 0.31 mg/mL (2-fold serial dilution curve) to E. coli 0157 in LB seeded at 10∝CFU/mL and incubated for 37° C. for 24 hours. Lactea Lactoferrin (Lactea-Lf) was produced as described in the above examples. The biofilm was stained using a standard crystal violet assay. A quantification of the inhibition of biofilm formation (FIG. 18A) and an image of a representative plate (FIG. 18B) are shown.

[5] = tested on: E. coli 0157; experiment: Bacterial growth timecourse, OD600; type: cell-based; settings: 1 mg/mL; for Bacterial Growth Timecourse, Replicate 1 / Bacterial Growth Timecourse, Replicate 2 / Bacterial Growth Timecourse, Replicate 3: OD600 relative to no treatment control at 24 hours
Description: For a more detailed comparison of Lactea-Lf antimicrobial activity relative to the Sigma Aldrich Lactoferrin, Lactea-Lf and Sigma Aldrich Lactoferrin were incubated at 1 mg/mL with for E. coli 0157 in LB seeded at 10∝CFU/mL. […] Results were quantified and reported as a percent of the OD600 of the no treatment control at 24 hours for all timepoints.

[6] = tested on: SARS-CoV-2; experiment: SARS-CoV-2 Cytopathic Effect (CPE) reduction assay in Vero E6 cells; type: cell-based; settings: Vero E6 cells, MOI of 0.001, neutral red, three days post-infection
[7] = 10∝CFU/mL E. coli 0157 in LB, OD600 relative to untreated

B1: Sigma-Lf: Sigma Aldrich Lactoferrin L9507 (Research Standard) (protein, UniProt P24627 20-708, looked up)
Lactotransferrin: APRKNVRWCTISQPEWFKCRRWQWRMKKLGAPSITCVRRAFALECIRAIAEKKADAVTLDGGMVFEAGRDPYKLRPVAAEIYGTKESPQTHYYAVAVVKKGSNFQLDQLQGRKSCHTGLGRSAGWIIPMGILRPYLSWTESLEPLQGAVAKFFSASCVPCIDRQAYPNLCQLCKGEGENQCACSSREPYFGYSGAFKCLQDGAGDVAFVKETTVFENLPEKADRDQYELLCLNNSRAPVDAFKECHLAQVPSHAVVARSVDGKEDLIWKLLSKAQEKFGKNKSRSFQLFGSPPGQRDLLFKDSALGFLRIPSKVDSALYLGSRYLTTLKNLRETAEEVKARYTRVVWCAVGPEEQKKCQQWSQQSGQNVTCATASTTDDCIVLVLKGEADALNLDGGYIYTAGKCGLVPVLAENRKSSKHSSLDCVLRPTEGYLAVAVVKKANEGLTWNSLKDKKSCHTAVDRTAGWNIPMGLIVNQTGSCAFDEFFSQSCAPGADPKSRLCALCAGDDQGLDKCVPNSKEKYYGYTGAFRCLAEDVGDVAFVKNDTVWENTNGESTADWAKNLNREDFRLLCLDGTRKPVTEAQSCHLAVAPNHAVVSRSDRAAHVKQVLLHQQALFGKNGKNCPDKFCLFKSETKNLLFNDNTECLAKLGGRPTYEEYLGTEYVTAIANLKKCSTSPLLEACAFLTR
For B1, the “relative ratio of apo to holo-Lactoferrin, DSC peak pattern” value [1] was “one lot was almost entirely holo-Lf and had two peaks in the holo-Lf range; also recorded: two faint peaks with slightly more holo-Lf than apo-Lf”, the “LPO enzymatic activity (blue color reaction)” value [2] was “does not result in a positive enzymatic reaction” and the “Relative Bacterial Growth, Replicate 1” value [3, 7] was 0.8089. For the same molecule, the “Relative Bacterial Growth, Replicate 2” value [3, 7] was 0.8162, the “Relative Bacterial Growth, Replicate 3” value [3, 7] was 0.7726 and the “antibacterial activity compared with other samples” value [3] was “less activity than any lot of co-elution or degraded product”. The “inhibition of biofilm formation, in words” value ([4]; E. coli 0157, 24 hours) was “only appears to demonstrate inhibition of biofilm in the low mg/mL range, but never completely eliminates biofilm formation”, the “Biofilm Inhibition, Replicate 1” value ([4]; [Lf] 0.031 mg/mL) was 0.6588 and the “Biofilm Inhibition, Replicate 2” value ([4]; [Lf] 0.031 mg/mL) was 0.9283. For the same molecule, the “Biofilm Inhibition, Replicate 3” value ([4]; [Lf] 0.031 mg/mL) was 0.854, the “Biofilm Inhibition, Replicate 1” value ([4]; [Lf] 0.063 mg/mL) was 0.2439 and the “Biofilm Inhibition, Replicate 2” value ([4]; [Lf] 0.063 mg/mL) was 0.1943. For the same molecule, the “Biofilm Inhibition, Replicate 3” value ([4]; [Lf] 0.063 mg/mL) was 0.3058, the “Biofilm Inhibition, Replicate 1” value ([4]; [Lf] 0.125 mg/mL) was 0.1583 and the “Biofilm Inhibition, Replicate 2” value ([4]; [Lf] 0.125 mg/mL) was 0.1464. For the same molecule, the “Biofilm Inhibition, Replicate 3” value ([4]; [Lf] 0.125 mg/mL) was 0.5378, the “Biofilm Inhibition, Replicate 1” value ([4]; [Lf] 0.25 mg/mL) was 0.1929 and the “Biofilm Inhibition, Replicate 2” value ([4]; [Lf] 0.25 mg/mL) was 0.2837. The “Biofilm Inhibition, Replicate 3” value ([4]; [Lf] 0.25 mg/mL) was 0.358, the “Biofilm Inhibition, Replicate 1” value ([4]; [Lf] 0.5 mg/mL) was 0.126 and the “Biofilm Inhibition, Replicate 2” value ([4]; [Lf] 0.5 mg/mL) was 0.192. For the same molecule, the “Biofilm Inhibition, Replicate 3” value ([4]; [Lf] 0.5 mg/mL) was 0.1942, the “Biofilm Inhibition, Replicate 1” value ([4]; [Lf] 1 mg/mL) was 0.05367 and the “Biofilm Inhibition, Replicate 2” value ([4]; [Lf] 1 mg/mL) was 0.09846. The “Biofilm Inhibition, Replicate 3” value ([4]; [Lf] 1 mg/mL) was 0.1465, the “Biofilm Inhibition, Replicate 1” value ([4]; [Lf] 2 mg/mL) was 0.09652 and the “Biofilm Inhibition, Replicate 2” value ([4]; [Lf] 2 mg/mL) was 0.03678. The “Biofilm Inhibition, Replicate 3” value ([4]; [Lf] 2 mg/mL) was 0.08427, the “time at which bacterial growth became observable / evident” value ([5]; E. coli 0157 in LB) was 6 h and the “Bacterial Growth Timecourse, Replicate 1” value ([5]; 3 h) was 0.04197. The “Bacterial Growth Timecourse, Replicate 2” value ([5]; 3 h) was 0.0345, the “Bacterial Growth Timecourse, Replicate 3” value ([5]; 3 h) was 0.04414 and the “Bacterial Growth Timecourse, Replicate 1” value ([5]; 6 h) was 0.6058. For the same molecule, the “Bacterial Growth Timecourse, Replicate 2” value ([5]; 6 h) was 0.6264, the “Bacterial Growth Timecourse, Replicate 3” value ([5]; 6 h) was 0.6363 and the “Bacterial Growth Timecourse, Replicate 1” value ([5]; 9 h) was 0.6012. For the same molecule, the “Bacterial Growth Timecourse, Replicate 2” value ([5]; 9 h) was 0.6124, the “Bacterial Growth Timecourse, Replicate 3” value ([5]; 9 h) was 0.6341 and the “Bacterial Growth Timecourse, Replicate 1” value ([5]; 12 h) was 0.6658. The “Bacterial Growth Timecourse, Replicate 2” value ([5]; 12 h) was 0.6702, the “Bacterial Growth Timecourse, Replicate 3” value ([5]; 12 h) was 0.6326 and the “Bacterial Growth Timecourse, Replicate 1” value ([5]; 15 h) was 0.6543. The “Bacterial Growth Timecourse, Replicate 2” value ([5]; 15 h) was 0.6602, the “Bacterial Growth Timecourse, Replicate 3” value ([5]; 15 h) was 0.6251 and the “Bacterial Growth Timecourse, Replicate 1” value ([5]; 18 h) was 0.6295. For the same molecule, the “Bacterial Growth Timecourse, Replicate 2” value ([5]; 18 h) was 0.6201, the “Bacterial Growth Timecourse, Replicate 3” value ([5]; 18 h) was 0.599 and the “Bacterial Growth Timecourse, Replicate 1” value ([5]; 21 h) was 0.6512. The “Bacterial Growth Timecourse, Replicate 2” value ([5]; 21 h) was 0.5981, the “Bacterial Growth Timecourse, Replicate 3” value ([5]; 21 h) was 0.5984 and the “Bacterial Growth Timecourse, Replicate 1” value ([5]; 24 h) was 0.6668. The “Bacterial Growth Timecourse, Replicate 2” value ([5]; 24 h) was 0.6205 and the “Bacterial Growth Timecourse, Replicate 3” value ([5]; 24 h) was 0.6407.

B2: Lactoferrin (“Reagent”): reagent grade Lactoferrin, comparable research grade reference product (protein, UniProt P24627 20-708, looked up)
Lactotransferrin: B1 Lactotransferrin
Work on B2 yielded an EC50 [6] of 140 nM.

Source: US20260000736A1, “PURIFIED LACTOFERRIN COMPOSITIONS AND METHODS OF USE” (Lactea Therapeutics LLC, priority 2023, published 2026)
